Measurements from US20230348629A1 (BEIJING MABWORKS BIOTECH, published 2023).

T1: human TIGIT on HEK293A/human TIGIT cells (human, UniProt Q495A1 22-244)
T1 sequence: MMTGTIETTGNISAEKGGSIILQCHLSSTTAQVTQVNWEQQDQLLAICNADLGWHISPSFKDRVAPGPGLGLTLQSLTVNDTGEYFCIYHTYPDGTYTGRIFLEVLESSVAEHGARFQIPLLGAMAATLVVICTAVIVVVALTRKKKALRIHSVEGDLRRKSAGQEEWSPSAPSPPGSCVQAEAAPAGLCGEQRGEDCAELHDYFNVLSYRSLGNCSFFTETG

T2: human TIGIT-his protein (Cat #:10917-H08H, Sino Biological) (human, UniProt Q495A1 22-141)
T2 construct: Bought soluble protein; also called TIGIT molecules; not shown: his tag
T2 sequence: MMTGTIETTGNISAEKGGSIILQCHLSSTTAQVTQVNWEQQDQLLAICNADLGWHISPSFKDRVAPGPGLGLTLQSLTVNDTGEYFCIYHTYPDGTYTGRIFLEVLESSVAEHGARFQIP

T3: human VEGF-C-his molecules (Cat #:VEC-H4225, Acrobiosystems) (human, UniProt P49767 103-227, limits assumed)
T3 construct: Bought protein; not shown: his tag
T3 sequence (looked up): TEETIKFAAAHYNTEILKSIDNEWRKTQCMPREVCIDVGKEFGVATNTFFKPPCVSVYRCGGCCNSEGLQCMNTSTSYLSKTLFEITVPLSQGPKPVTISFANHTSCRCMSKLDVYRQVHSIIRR

T4: TIGIT-mFc molecules (Cat #: 10917-H38H, Sino Biological) (UniProt Q495A1 22-141)
T4 construct: not shown: mFc (mouse Fc)
T4 sequence (looked up): T2 sequence

B1: MBS310-6 (bispecific antibody, human IgG1, kappa)
heavy 1: not shown
heavy 2: not shown
light 1: not shown
light 2: EIVLTQSPGTLSLSPGERATMTCRASSSISSTYLHWYQQKPGASPKLLIYNTQNLASGVPARFSGSGSGTSYTLTISRLEPEDFAVYYCQQFGGYPLITFGAGTKLELKRTVAAPSVFIFPPSDEQLKSGTASVVCLLNNFYPREAKVQWKVDNALQSGNSQESVTEQDSKDSTYSLSSTLTLSKADYEKHKVYACEVTHQGLSSPVTKSFNRGEC
notes: two half antibodies (knob and hole) expressed in HEK-293F cells and assembled in vitro; also called asymmetrical anti-VEGF/TIGIT bispecific antibody; anti-TIGIT/VEGF bispecific antibody
B2: MBS310-4 (bispecific antibody, human IgG1, kappa)
heavy: not shown
light: B1 light 2
notes: also called symmetrical anti-VEGF/TIGIT bispecific antibody
B3: 70E11VH2VL4 (antibody, human IgG1, kappa, V domains shown)
VH: QVQLVQSGAEVKKPGASVKVSCKASGYTFTSYNVHWVRQAPGQGLEWMGTIYPGNLATSYNQKFKGRVTLTADTSTSTVYMELSSLRSEDTAVYYCARSGTMDYWGQGTTVTVSS
VL: EIVLTQSPGTLSLSPGERATMTCRASSSISSTYLHWYQQKPGASPKLLIYNTQNLASGVPARFSGSGSGTSYTLTISRLEPEDFAVYYCQQFGGYPLITFGAGTKLELKR
notes: Humanized anti-TIGIT antibody, human IgG1 and kappa constant regions; also called anti-TIGIT antibody 70E11VH2VL4; monospecific anti-TIGIT antibody
B4: bevacizumab (antibody, V domains shown)
VH: EVQLVESGGGLVQPGGSLRLSCAASGYTFTNYGMNWVRQAPGKGLEWVGWINTYTGEPTYAADFKRRFTFSLDTSKSTAYLQMNSLRAEDTAVYYCAKYPHYYGSSHWYFDVWGQGTLVTVSS
VL: DIQMTQSPSSLSASVGDRVTITCSASQDISNYLNWYQQKPGKAPKVLIYFTSSLHSGVPSRFSGSGSGTDFTLTISSLQPEDFATYYCQQYSTVPWTFGQGTKVEIKR
notes: also called Avastin bevacizumab

Legend:
[1] = biological target: T1, human TIGIT on HEK293A/human TIGIT cells; assay: cell-based or functional assay
[2] = biological target: T1, human TIGIT on HEK293A/human TIGIT cells; assay: FACS on HEK293A/human TIGIT cells, antibody titrated, MFI
Protocol: (§1) Briefly, 10⁵ HEK293A cells in 100 μl cell culture medium were seeded onto a 96-well plate, which was later added with 50 μl serially diluted bispecific antibodies of the disclosure. After incubation at 4° C. for 1 h, the plate was washed with PBS for three times, added with APC-goat-anti-mouse IgG (1:500, Cat #: 405308, BioLegend, USA). After incubation at 4° C. for 1 h, the plate was washed with PBS for three times, and measured for fluorescence using a cytometry (BD).

[3] = biological target: T5, monkey TIGIT on HEK293A/monkey TIGIT cells (monkey); assay: FACS on HEK293A/monkey TIGIT cells, antibody titrated, MFI
T5 construct: also called cell surface monkey TIGIT
Protocol: as §1

[4] = biological target: T6, human VEGF-A molecules (Cat #:11066-HNAN, Sino Biological) (human, UniProt P15692-4 27-191); assay: SPR (BIAcore 8K), human VEGF-A coupled to the chip, antibody injected
T6 construct: Bought protein; also called human/monkey VEGF; VEGF molecules
From the text: (§2) Using BIAcore™ 8K instrument (GE Life Sciences, US), the binding affinity of the bispecific molecules of the disclosure to human TIGIT and VEGF was quantitatively measured. Briefly, 100-200 response units (RU) of human TIGIT-his protein (Cat #:10917-H08H, Sino Biological, CN) or human VEGF-A (Cat #:11066-HNAN, Sino Biological, CN) were coupled to CMS biosensor chips (Cat #:BR-1005-30, GE Life Sciences, US). The un-reacted groups were then blocked with 1M ethanolamine Serially diluted antibodies at concentrations ranging from 0.3 μM to 10 μM were injected into the SPR running buffer (HBS-EP buffer, pH7.4, Cat #:BR-1006-69, GE Life Sciences, US) at 30 μL/min. The binding affinity was calculated with the RUs of blank controls subtracted, and the association rate (kₐ) and dissociation rate (kd) were determined using the one-to-one Langmuir binding model (BIA Evaluation Software, GE Life Sciences, US). The equilibrium dissociation constant KD was calculated as the kd/kₐ ratio.

[5] = biological target: T6, human VEGF-A molecules (Cat …); assay: ELISA, plate coated with human VEGF-A, antibody titrated, OD450
Protocol: (§3) Briefly, an ELISA plate was coated with 100 μl 500 ng/ml human VEGF-A molecules (Cat #:11066-HNAN, Sino Biological, CN), mouse VEGF-A molecules (Cat #:50159-MNAB, Sino Biological, CN), human VEGF-B-his molecules (Cat #:VE6-H5225, Acrobiosystems Co., CN) and human VEGF-C-his molecules (Cat #:VEC-H4225, Acrobiosystems Co., CN) respectively overnight at 4° C. […] The ELISA plate was added with freshly prepared Ultra-TMB (Cat #:555214, BD, USA), and left still for 5 min for color development. The absorbance was read at 450 nm using SpectraMax® i3X microplate reader.

[6] = biological target: T2, human TIGIT-his protein (Cat …); assay: SPR (BIAcore 8K), human TIGIT-his coupled to the chip, antibody injected
From the text: as §2

[7] = biological target: T1, human TIGIT on HEK293A/human TIGIT cells; assay: FACS on HEK293A/human TIGIT cells, antibody titrated, no free VEGF-A
Protocol: as §1, with “of the disclosure and 50 μl free human VEGF-A molecules at the final concentration of 0 ng/ml, 50 ng/ml or 50 μg/ml (Cat #:11066-HNAN, Sino Biological, CN). After incubation” for “of the disclosure. After incubation”, “three times, and added with” for “three times, added with”

[8] = biological target: T1, human TIGIT on HEK293A/human TIGIT cells; assay: as above; remark: listed apart in the source
Protocol: as §1, with “of the disclosure and 50 μl free human VEGF-A molecules at the final concentration of 0 ng/ml, 50 ng/ml or 50 μg/ml (Cat #:11066-HNAN, Sino Biological, CN). After incubation” for “of the disclosure. After incubation”, “three times, and added with” for “three times, added with”

[9] = biological target: T3, human VEGF-C-his molecules (Cat …); assay: ELISA, plate coated with human VEGF-C-his, antibody titrated (axis labelled MFI)
Protocol: as §3

[10] = biological target: T1, human TIGIT on HEK293A/human TIGIT cells; assay: FACS on HEK293A/human TIGIT cells, antibody titrated in the presence of 50 ng/ml free human VEGF-A
Protocol: as §1, with “of the disclosure and 50 μl free human VEGF-A molecules at the final concentration of 0 ng/ml, 50 ng/ml or 50 μg/ml (Cat #:11066-HNAN, Sino Biological, CN). After incubation” for “of the disclosure. After incubation”, “three times, and added with” for “three times, added with”

[11] = biological target: T1, human TIGIT on HEK293A/human TIGIT cells; assay: FACS on HEK293A/human TIGIT cells, antibody titrated in the presence of 50 ug/ml free human VEGF-A
Protocol: as §1, with “of the disclosure and 50 μl free human VEGF-A molecules at the final concentration of 0 ng/ml, 50 ng/ml or 50 μg/ml (Cat #:11066-HNAN, Sino Biological, CN). After incubation” for “of the disclosure. After incubation”, “three times, and added with” for “three times, added with”

[12] = biological target: T4, TIGIT-mFc molecules (Cat #: 10917-H38H, …); assay: FACS blocking assay: antibody titrated and premixed with 5 ug/ml TIGIT-mFc, binding of TIGIT-mFc to human PVR on A549/human PVR cells
Protocol: After incubation at 4° C. for 1 h, the plate was washed with PBS for three times, and then added with PE-goat-anti-mouse IgG (1:500, Cat #:31861, Thermofisher, USA). After incubation at 4° C. for 1 h, the plate was washed with PBS for three times, and measured for fluorescence using a cytometry (BD).

T6 sequence (P15692 other isoform, or with tags, fused parts or gaps limits assumed): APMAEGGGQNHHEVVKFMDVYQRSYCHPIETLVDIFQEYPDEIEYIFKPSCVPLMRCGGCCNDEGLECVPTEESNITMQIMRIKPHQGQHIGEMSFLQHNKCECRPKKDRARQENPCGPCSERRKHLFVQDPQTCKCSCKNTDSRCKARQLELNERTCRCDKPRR
T5 sequence (chain, as listed by the source limits assumed): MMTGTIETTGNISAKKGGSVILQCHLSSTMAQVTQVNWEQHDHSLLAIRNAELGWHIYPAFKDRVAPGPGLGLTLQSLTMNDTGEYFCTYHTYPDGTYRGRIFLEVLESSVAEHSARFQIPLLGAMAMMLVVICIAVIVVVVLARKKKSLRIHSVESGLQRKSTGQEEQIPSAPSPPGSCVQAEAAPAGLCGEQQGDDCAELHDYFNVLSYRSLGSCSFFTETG

| Binder | EC50, NK92 (NK92MI-CD16a) cell-mediated ADCC, LDH release [1] [nM] | EC50, PBMC-mediated ADCC, death rate of GFP+ cells by FACS [1] [nM] | EC50 (read off the curve) [2] [nM] | EC50 (read off the curve) [3] [nM] | Kd [4] [nM] | EC50 (read off the curve) [5] [nM] | Kd [6] [nM] | EC50 (read off the curve) [7] [nM] | EC50 (read off the curve) [8] [nM] | binding result [9] | EC50 (read off the curve) [10] [nM] | EC50 (read off the curve) [11] [nM] | IC50 (read off the curve) [12] [nM] | binding result [5] |
| --- | --- | --- | --- | --- | --- | --- | --- | --- | --- | --- | --- | --- | --- | --- |
| B1 | 0.268 | 0.183 | ~0.8 | ~1 | 0.166 | ~0.6 | 12.8 | ~1 | ~0.9 | no binding (tested: about 100 nM (LOG.Con about 2)) | ~1 | ~0.8 | ~4 | – |
| B2 | – | – | – | – | – | – | – | – | – | – | – | – | – | binds |
| B3 | 0.142 | 0.162 | ~0.4 | ~0.2 | – | – | 8.05 | – | – | – | – | – | ~2 | – |
| B4 | – | – | – | – | – | – | – | – | – | no binding (tested: about 100 nM (LOG.Con about 2)) | – | – | – | – |
